Where no end group is shown, it is not given here. [ ]: non-standard residue; d: D form. Ahx = NCCCCCC(=O)O
Target: T1, Soluble PDGF receptor, recombinant chimera of human PDGF-R-alpha (R&D Systems) (human, UniProt P16234 24-524)
T1 construct: Bought from R&D Systems; immobilized on a CM5 chip by EDC/NHS; not shown: called a recombinant chimera
Test: SPR, BIAcore 2000, receptor immobilized on CM5 chip, peptide as analyte, 1:1 global fit
Procedure: Surface Plasmon Resonance (SPR) Analysis. Real-time biomolecular interactions were analyzed with a BIAcore 2000 system (Biacore Inc., Piscataway, N.J.). Soluble PDGF receptor, recombinant chimera of human PDGF-R-alpha and PSGF-R-beta (R &D Systems, Minneapolis, Minn.), was immobilized on research grade CM5 chips (Biacore Inc., Piscataway, N.J.). Following activation with EDC/NHS, the receptors were immobilized on activated CM5 chips. To obtain kinetic data, different concentrations of analytes in HBS-EP buffer were injected over the sensor chip at a flow rate of 50 μl/min. Peptide binding was measured in resonance units (RU). At the end of each sample injection (120 s) buffer was passed over the sensor surface to monitor the dissociation phase. Reference responses from blank flow cells were subtracted from receptor-containing flow cells for each analyte injection and the kinetic parameters for each interaction were determined by globally fitting the experimental data to a 1:1 interaction with BIAEVALUATION software (Biacore Inc., Piscataway, N.J.). The association rate constant and the dissociation rate constant (kₐ and kd, respectively), and the equilibrium dissociation constant (KD) are presented in the Table 4 for the receptors and PBA2-1.

T1 sequence (P16234 24-524, change not shown): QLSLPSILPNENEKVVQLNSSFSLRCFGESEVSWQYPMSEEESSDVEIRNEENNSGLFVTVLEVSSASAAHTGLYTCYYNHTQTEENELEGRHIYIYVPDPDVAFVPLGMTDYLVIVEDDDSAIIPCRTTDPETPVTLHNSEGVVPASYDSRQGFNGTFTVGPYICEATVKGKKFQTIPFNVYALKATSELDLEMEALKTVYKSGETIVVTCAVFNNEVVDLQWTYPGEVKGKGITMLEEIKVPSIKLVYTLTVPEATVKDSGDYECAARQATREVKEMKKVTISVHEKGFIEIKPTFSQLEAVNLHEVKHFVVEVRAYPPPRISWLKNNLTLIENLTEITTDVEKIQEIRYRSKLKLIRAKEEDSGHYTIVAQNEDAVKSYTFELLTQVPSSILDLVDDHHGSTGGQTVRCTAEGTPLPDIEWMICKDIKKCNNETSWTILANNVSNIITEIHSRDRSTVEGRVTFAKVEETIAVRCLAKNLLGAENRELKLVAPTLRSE

B1: PBA2-1 (peptide)
chain 1: VRKIEIVRKKK[Ahx][Ahx][Ahx]RKRKLERIAR-NH2
chain 2: VRKIEIVRKK
modifications: also: chain 2 bound through its C-terminus to the side chain of Lys11 of chain 1 (branched homodimer), bond at chain A 11 to a chain's C-terminus
notes: also called mimetic of PDGF; PDGF analog PBA2-1
Question: Which Kd does the source give for B1 here?
Answer: Its Kd is 23.3 nM.
